Experimental findings from publication PMC6954417, “DSS1 interacts with and stimulates RAD52 to promote the repair of DSBs” are described below.

In series [1] the target is RAD52 (untagged, pET11a);DSS1 (Homo sapiens;Homo sapiens, UniProt P43351;P60896 1-418;1-70, |). Briefly: stopped-flow fluorescence; 1:1 complex; sign change at 0.1-0.25 uM; ssDNA EMSA: 30 mM Tris-acetate pH 7.5, 1 mM DTT, RT, 0.1% glutaraldehyde; FRET: same buffer + 0.1 mg/ml BSA, 25 C; dsDNA EMSA: 30 mM KPi pH 7.4, 1 mM DTT, 0.01. Particulars: protein: recombinant;recombinant; tags: none;GST removed by thrombin; label: Cy3; single strand.

Series [2] addresses T1, RAD52 (untagged, pET11a) (Homo sapiens, UniProt P43351 1-418).
T1 sequence: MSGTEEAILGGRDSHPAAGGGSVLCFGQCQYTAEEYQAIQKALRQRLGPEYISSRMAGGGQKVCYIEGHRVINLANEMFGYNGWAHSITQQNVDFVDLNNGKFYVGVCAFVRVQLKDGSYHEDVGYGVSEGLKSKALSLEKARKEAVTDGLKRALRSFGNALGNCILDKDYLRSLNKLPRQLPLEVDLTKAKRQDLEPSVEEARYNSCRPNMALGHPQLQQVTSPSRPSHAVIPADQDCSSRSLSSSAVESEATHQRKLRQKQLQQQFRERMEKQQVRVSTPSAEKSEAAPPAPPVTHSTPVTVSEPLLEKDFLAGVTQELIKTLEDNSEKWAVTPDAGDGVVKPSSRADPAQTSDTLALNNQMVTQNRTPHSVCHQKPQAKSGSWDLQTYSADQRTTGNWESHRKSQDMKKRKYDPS
Put plainly: stopped-flow fluorescence; 0.05-2.0 uM RAD52; smaller amplitude, lower affinity than with DSS1; sign change at ~0.5 uM; ssDNA EMSA: 30 mM Tris-acetate pH 7.5, 1 mM DTT, RT, 0.1% glutaraldehyde; FRET: same buffer + 0.1 mg/ml BSA, 25 C; dsDNA EMSA: 30 mM KPi pH 7.4, 1 mM DTT, 0.01. The following applies: protein: recombinant; tags: none; label: Cy3; single strand.

Chain of RAD52 (untagged, pET11a);DSS1 (P60896 whole entry, one chain of several): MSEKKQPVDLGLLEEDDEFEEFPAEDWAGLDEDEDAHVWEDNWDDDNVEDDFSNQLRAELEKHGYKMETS

For the molecule TTTTTTTTTTTTTTTTTTTTTTTTTTTTTTTTT (ssDNA) [Cy3-dT33 (pR1255)], the binding result in series [1] and in series [2] was “binds” each time.
